Marks after values point to notes of the source that are not given here.
Biological target: T1, human uPAR (Homo sapiens, UniProt Q03405)
T1 construct: the mature protein (Leu^1-Gly^283) in bold; expressed in transfected cells; host or cells: HEK293 Flp-In T-REx (293)
Test: Real-time cell analyzer (xCELLigence) adhesion of 293/uPAR cells to VN
Type: cell-based
Conditions: cell index one hour after addition, highest antibody concentration 300 nM
Description: The electric impedance (termed cell index, CI) was recorded at regular intervals. […] The curves show the normalized cell index (NCI, Y-axis) as a function of time (X-axis). All cell indexes were normalized to the cell index measured immediately prior to antibody addition. To determine IC50 values (panel D), the NCI measured one hour after antibody addition were calculated in % of the NCI for untreated cells at the same time point (ΔNCI, Y-axis) and graphed in function of antibody concentration (X-axis).
96-well E-Plates were coated with VN (5 μg/ml) or FN (10 μg/ml) over night at 4° C. Plates were washed with PBS, added 0.1 ml serum free medium (DMEM, 0.1% bovine serum albumin, 25 mM Hepes pH 7.0) and transferred to real-time cell analyzer instrument (xCELLigence SP, Roche Corp.). […] The plate was returned to the instrument and the cell index recorded every three minutes. […] After another 1-1.5 hours of measurements the plate was removed again and wells added (20 μl) of antibody diluted to yield the indicated final concentrations. The plate was returned to the instrument and measurements conducted every 3 minutes for 2 hours and then every 15 minutes for 18 hours.

T1 sequence (Q03405 23-305): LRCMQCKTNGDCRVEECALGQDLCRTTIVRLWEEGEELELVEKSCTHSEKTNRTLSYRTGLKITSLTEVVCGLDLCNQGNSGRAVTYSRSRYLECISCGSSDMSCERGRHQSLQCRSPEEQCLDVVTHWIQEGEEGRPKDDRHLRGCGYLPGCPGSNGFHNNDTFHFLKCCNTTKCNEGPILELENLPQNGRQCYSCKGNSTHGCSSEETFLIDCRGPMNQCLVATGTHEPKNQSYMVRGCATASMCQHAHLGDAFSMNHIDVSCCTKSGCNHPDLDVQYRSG

% max inhibition (pro-uPA pre-treat.) (pro-uPA pre-treated 293/uPAR cells on VN): 100* % | % max inhibition (veh. pre-treat.) (vehicle pre-treated 293/uPAR cells on VN): 100* %
Substance: SMB: uPAR-binding N-terminal domain of VN, natural competitive antagonist of the uPAR/VN-interaction (DQESCKGRCTEGFNVDKKCQCDELCSYYQSCCTDYTAECKPQVT) [reference compound]

— patent US20140161803A1 (IFOM Fondazione Istituo FIRC di Oncologia Molecolare, priority 2011, published 2014)
